Test results taken from paper PMC10397247.
Read-outs that look alike come from different tables or passages of the source.

T1: P6A-bS
T1 chain: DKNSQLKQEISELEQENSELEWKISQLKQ

T2: P7A-bS
T2 chain: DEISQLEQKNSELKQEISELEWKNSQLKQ

T3: P8A-bS
T3 chain: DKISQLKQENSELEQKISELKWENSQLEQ

T4: P9A-bS
T4 chain: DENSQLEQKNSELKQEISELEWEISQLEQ

T5: 4H349-bA
T5 chain: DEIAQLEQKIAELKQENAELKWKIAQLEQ

T6: 4H56-bA
T6 chain: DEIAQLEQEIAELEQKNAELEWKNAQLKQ

T7: 4H730-bA
T7 chain: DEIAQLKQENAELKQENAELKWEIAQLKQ

T8: 4H796-bA
T8 chain: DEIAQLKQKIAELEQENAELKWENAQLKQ

T9: 4H932-bA
T9 chain: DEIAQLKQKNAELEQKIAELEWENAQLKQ

T10: 4H949-bA
T10 chain: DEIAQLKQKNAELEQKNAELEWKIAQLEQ

T11: O15-bP
T11 chain: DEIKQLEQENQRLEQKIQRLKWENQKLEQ

T12: 4H496-bA
T12 chain: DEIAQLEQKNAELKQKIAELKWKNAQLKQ

T13: 4H2736-AA
T13 chain: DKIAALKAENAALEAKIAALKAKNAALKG

T14: 4H2888-AA
T14 chain: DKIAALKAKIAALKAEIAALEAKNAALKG

T15: 4H3049-AA
T15 chain: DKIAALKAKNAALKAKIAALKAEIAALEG

T16: 4H337-AA
T16 chain: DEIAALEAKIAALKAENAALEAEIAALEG

T17: 4H3587-AA
T17 chain: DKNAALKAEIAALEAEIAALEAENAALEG

T18: 4H3590-AA
T18 chain: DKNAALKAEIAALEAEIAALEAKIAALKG

T19: 4H3625-AA
T19 chain: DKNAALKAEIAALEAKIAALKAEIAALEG

T20: 4H384-AA
T20 chain: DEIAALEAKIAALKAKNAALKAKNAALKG

T21: 4H3905-AA
T21 chain: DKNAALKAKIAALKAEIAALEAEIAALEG

T22: 4H4038-AA
T22 chain: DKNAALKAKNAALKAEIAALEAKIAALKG

T23: 4H43-AA
T23 chain: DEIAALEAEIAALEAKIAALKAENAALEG

T24: 4H451-AA
T24 chain: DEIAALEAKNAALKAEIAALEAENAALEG

T25: 4H510-AA
T25 chain: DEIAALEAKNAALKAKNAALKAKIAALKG

T26: 4H_APH
T26 chain: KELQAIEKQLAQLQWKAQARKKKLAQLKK

T27: 4H_BCR
T27 chain: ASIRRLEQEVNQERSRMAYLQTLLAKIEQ

T28: O11-AA
T28 chain: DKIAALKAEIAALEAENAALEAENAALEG

T29: O13-AA
T29 chain: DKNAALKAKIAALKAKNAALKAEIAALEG

T30: O14-AA
T30 chain: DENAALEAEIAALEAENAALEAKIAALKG

T31: 4H3961-bH
T31 chain: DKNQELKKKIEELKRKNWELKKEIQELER

T32: 4H470-bH
T32 chain: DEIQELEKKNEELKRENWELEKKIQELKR

T33: 4H2705-AA
T33 chain: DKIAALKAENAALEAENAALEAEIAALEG

T34: 4H2758-AA
T34 chain: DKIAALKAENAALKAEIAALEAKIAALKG

T35: 4H278-AA
T35 chain: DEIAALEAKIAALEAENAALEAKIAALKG

T36: 4H2873-AA
T36 chain: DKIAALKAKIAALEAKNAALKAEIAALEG

T37: 4H2985-AA
T37 chain: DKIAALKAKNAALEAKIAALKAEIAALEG

T38: 4H3134-AA
T38 chain: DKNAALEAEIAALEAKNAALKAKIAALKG

T39: 4H3409-AA
T39 chain: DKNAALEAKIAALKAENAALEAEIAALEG

T40: 4H390-AA
T40 chain: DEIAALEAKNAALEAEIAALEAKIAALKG

T41: 4H3940-AA
T41 chain: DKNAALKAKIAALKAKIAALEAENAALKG

T42: 4H775-AA
T42 chain: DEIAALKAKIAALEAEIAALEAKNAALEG

T43: 4H816-AA
T43 chain: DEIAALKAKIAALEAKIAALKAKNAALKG

T44: 4H87-AA
T44 chain: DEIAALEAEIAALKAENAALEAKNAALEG


What was measured:
P6A-bS = biological target: T1, P6A-bS; assay: two-hybrid library CCNG1;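 further: natural log of median RNA to DNA barcode read ratio; higher means stronger binding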
P7A-bS = biological target: T2, P7A-bS; assay: two-hybrid library CCNG1;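 further: natural log of median RNA to DNA barcode read ratio; higher means stronger binding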
P8A-bS = biological target: T3, P8A-bS; assay: two-hybrid library CCNG1;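 further: natural log of median RNA to DNA barcode read ratio; higher means stronger binding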
P9A-bS = biological target: T4, P9A-bS; assay: two-hybrid library CCNG1;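 further: natural log of median RNA to DNA barcode read ratio; higher means stronger binding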
4H349-bA = biological target: T5, 4H349-bA; assay: two-hybrid library CCNG1
4H56-bA = biological target: T6, 4H56-bA; assay: two-hybrid library CCNG1
4H730-bA = biological target: T7, 4H730-bA; assay: two-hybrid library CCNG1
4H796-bA = biological target: T8, 4H796-bA; assay: two-hybrid library CCNG1
4H932-bA = biological target: T9, 4H932-bA; assay: two-hybrid library CCNG1
4H949-bA = biological target: T10, 4H949-bA; assay: two-hybrid library CCNG1
O15-bP = biological target: T11, O15-bP; assay: two-hybrid library CCNG1
4H496-bA = biological target: T12, 4H496-bA; assay: two-hybrid library CCNG1
4H2736-AA = biological target: T13, 4H2736-AA; assay: two-hybrid library CCmax
4H2888-AA = biological target: T14, 4H2888-AA; assay: two-hybrid library CCmax; details: mean of both orientations
4H3049-AA = biological target: T15, 4H3049-AA; assay: two-hybrid library CCmax; details: mean of both orientations
4H337-AA = biological target: T16, 4H337-AA; assay: two-hybrid library CCmax; details: mean of both orientations
4H3587-AA = biological target: T17, 4H3587-AA; assay: two-hybrid library CCmax; details: mean of both orientations
4H3590-AA = biological target: T18, 4H3590-AA; assay: two-hybrid library CCmax; details: mean of both orientations
4H3625-AA = biological target: T19, 4H3625-AA; assay: two-hybrid library CCmax; details: mean of both orientations
4H384-AA = biological target: T20, 4H384-AA; assay: two-hybrid library CCmax; details: mean of both orientations
4H3905-AA = biological target: T21, 4H3905-AA; assay: two-hybrid library CCmax; details: mean of both orientations
4H4038-AA = biological target: T22, 4H4038-AA; assay: two-hybrid library CCmax; details: mean of both orientations
4H43-AA = biological target: T23, 4H43-AA; assay: two-hybrid library CCmax
4H451-AA = biological target: T24, 4H451-AA; assay: two-hybrid library CCmax; details: mean of both orientations
4H510-AA = biological target: T25, 4H510-AA; assay: two-hybrid library CCmax; details: mean of both orientations
4H_APH = biological target: T26, 4H_APH; assay: two-hybrid library CCmax; details: mean of both orientations
4H_BCR = biological target: T27, 4H_BCR; assay: two-hybrid library CCmax; details: mean of both orientations
4H_GCN4 = assay: two-hybrid library CCmax; details: mean of both orientations
Chain of 4H_GCN4 (chain, as listed by the source): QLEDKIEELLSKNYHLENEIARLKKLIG

GCN2_T = assay: two-hybrid library CCmax
O11-AA = biological target: T28, O11-AA; assay: two-hybrid library CCmax; details: mean of both orientations
O13-AA = biological target: T29, O13-AA; assay: two-hybrid library CCmax; details: mean of both orientations
O14-AA = biological target: T30, O14-AA; assay: two-hybrid library CCmax; details: mean of both orientations
4H3961-bH = biological target: T31, 4H3961-bH; assay: two-hybrid library CCNG1; details: mean of both orientations
4H470-bH = biological target: T32, 4H470-bH; assay: two-hybrid library CCNG1
4H2705-AA = biological target: T33, 4H2705-AA; assay: two-hybrid library CCmax
4H2758-AA = biological target: T34, 4H2758-AA; assay: two-hybrid library CCmax; details: mean of both orientations
4H278-AA = biological target: T35, 4H278-AA; assay: two-hybrid library CCmax; details: mean of both orientations
4H2873-AA = biological target: T36, 4H2873-AA; assay: two-hybrid library CCmax; details: mean of both orientations
4H2985-AA = biological target: T37, 4H2985-AA; assay: two-hybrid library CCmax
4H3134-AA = biological target: T38, 4H3134-AA; assay: two-hybrid library CCmax; details: mean of both orientations
4H3409-AA = biological target: T39, 4H3409-AA; assay: two-hybrid library CCmax; details: mean of both orientations
4H390-AA = biological target: T40, 4H390-AA; assay: two-hybrid library CCmax; details: mean of both orientations
4H3940-AA = biological target: T41, 4H3940-AA; assay: two-hybrid library CCmax; details: mean of both orientations
4H775-AA = biological target: T42, 4H775-AA; assay: two-hybrid library CCmax; details: mean of both orientations
4H816-AA = biological target: T43, 4H816-AA; assay: two-hybrid library CCmax; details: mean of both orientations
4H87-AA = biological target: T44, 4H87-AA; assay: two-hybrid library CCmax; details: mean of both orientations

Row | interaction score (4H2888-AA) | interaction score (4H3049-AA) | interaction score (4H337-AA) | interaction score (4H3587-AA) | interaction score (4H3590-AA) | interaction score (4H3625-AA) | interaction score (4H384-AA) | interaction score (4H3905-AA) | interaction score (4H4038-AA) | interaction score (4H451-AA) | interaction score (4H510-AA) | interaction score (4H_APH) | interaction score (4H_BCR) | interaction score (4H_GCN4) | interaction score (O11-AA) | interaction score (O13-AA) | interaction score (O14-AA) | Binder | also measured
1 |  |  |  |  |  |  |  |  |  |  |  |  |  |  |  |  |  | DKNSQLKQEISELEQENSELEWKISQLKQ [P6A-bS] | interaction score (P6A-bS): -2.31; interaction score (P7A-bS): 1.24; interaction score (P8A-bS): 0.0461; interaction score (P9A-bS): -0.77
2 |  |  |  |  |  |  |  |  |  |  |  |  |  |  |  |  |  | DEIAQLEQKIAELKQENAELKWKIAQLEQ [4H349-bA] | interaction score (4H349-bA): 0.649; interaction score (4H56-bA): -0.982; interaction score (4H730-bA): -0.854; interaction score (4H796-bA): -0.458; interaction score (4H932-bA): -0.919; interaction score (4H949-bA): -1.01; interaction score (O15-bP): 0.584
3 |  |  |  |  |  |  |  |  |  |  |  |  |  |  |  |  |  | DEIAQLEQKNAELKQKIAELKWKNAQLKQ [4H496-bA] | interaction score (4H496-bA): -0.521
4 | -0.685 | 0.275 | -0.315 | -1.26 | -0.712 | 0.218 | -1.67 | -1.18 | -0.154 | 0.882 | -1.15 | -1.33 | -1.69 | -2.46 | -0.615 | 0.351 | -0.38 | DKIAALKAENAALEAKIAALKAKNAALKG [4H2736-AA] | interaction score (4H2736-AA): -1.62; interaction score (4H43-AA): -0.422; interaction score (GCN2_T): -0.66
5 |  |  |  |  |  |  |  |  |  |  |  |  |  |  |  |  |  | DKNQELKKKIEELKRKNWELKKEIQELER [4H3961-bH] | interaction score (4H3961-bH): -1.2; interaction score (4H470-bH): 1.3
6 | -1.97 | 1.67 | -0.896 | -1.78 | -1.6 | -2.01 | 1.45 | -1.49 | 0.153 | -1.84 | 1.88 | -1.6 | -1.75 | -1.71 | -1.81 | -1.17 | -1.68 | DKIAALKAENAALEAENAALEAEIAALEG [4H2705-AA] | interaction score (4H2705-AA): -1.4; interaction score (4H2736-AA; mean of both orientations): -1.45; interaction score (4H2758-AA): -1.01; interaction score (4H278-AA): -0.473; interaction score (4H2873-AA): -1.27; interaction score (4H2985-AA): -0.31; interaction score (4H3134-AA): -0.0637; interaction score (4H3409-AA): -1.62; interaction score (4H390-AA): -0.544; interaction score (4H3940-AA): -1.62; interaction score (4H43-AA; mean of both orientations): -1.82; interaction score (4H775-AA): -1.89; interaction score (4H816-AA): -1.52; interaction score (4H87-AA): -1.62; interaction score (GCN2_T; mean of both orientations): -1.4
